Like-named read-outs stand apart in the source and are kept apart here.
T1: human recombinant DMP1 (human, UniProt Q13316 17-513)
T1 chain: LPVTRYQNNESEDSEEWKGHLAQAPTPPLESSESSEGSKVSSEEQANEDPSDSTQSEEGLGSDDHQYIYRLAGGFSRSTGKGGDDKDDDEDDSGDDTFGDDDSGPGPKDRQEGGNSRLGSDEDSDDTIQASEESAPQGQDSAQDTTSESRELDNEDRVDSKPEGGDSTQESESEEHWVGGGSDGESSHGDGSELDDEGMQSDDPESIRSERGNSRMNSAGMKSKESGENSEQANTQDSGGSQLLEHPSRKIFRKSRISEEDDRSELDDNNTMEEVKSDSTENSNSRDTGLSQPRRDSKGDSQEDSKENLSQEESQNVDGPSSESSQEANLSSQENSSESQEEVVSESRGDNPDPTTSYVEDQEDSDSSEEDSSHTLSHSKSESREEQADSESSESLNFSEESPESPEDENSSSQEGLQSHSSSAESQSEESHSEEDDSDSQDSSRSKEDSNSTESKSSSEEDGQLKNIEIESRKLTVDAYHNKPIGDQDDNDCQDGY


Columns and labels:
Assay in all cases: SPR
human recombinant DMP1 [1] = biological target: T1, human recombinant DMP1
human recombinant DMP1 [2] = biological target: T1, human recombinant DMP1
ASARM peptide = biological target: ASARM peptide

Kd (human recombinant DMP1 [1])	Kd (human recombinant DMP1 [2])	Kd (ASARM peptide)	Binder
248 nM	248 nM		soluble human recombinant PHEX (enzyme) SLQAKQEYCLKPECIEAAAAILSKVNLSVDPCDNFFRFACDGWISNNPIPEDMPSYGVYPWLRHNVDLKLKELLEKSISRRRDTEAIQKAKILYSSCMNEKAIEKADAKPLLHILRHSPFRWPVLESNIGPEGVWSERKFSLLQTLATFRGQYSNSVFIRLYVSPDDKASNEHILKLDQATLSLAVREDYLDNSTEAKSYRDALYKFMVDTAVLLGANSSRAEHDMKSVLRLEIKIAEIMIPHENRTSEAMYNKMNISELSAMIPQFDWLGYIKKVIDTRLYPHLKDISPSENVVVRVPQYFKDLFRILGSERKKTIANYLVWRMVYSRIPNLSRRFQYRWLEFSRVIQGTTTLLPQWDKCVNFIESALPYVVGKMFVDVYFQEDKKEMMEELVEGVRWAFIDMLEKENEWMDAGTKRKAKEKARAVLAKVGYPEFIMNDTHVNEDLKAIKFSEADYFGNVLQTRKYLAQSDFFWLRKAVPKTEWFTNPTTVNAFYSASTNQIRFPAGELQKPFFWGTEYPRSLSYGAIGVIVGHEFTHGFDNNGRKYDKNGNLDPWWSTESEEKFKEKTKCMINQYSNYYWKKAGLNVKGKRTLGENIADNGGLREAFRAYRKWINDRRQGLEEPLLPGITFTNNQLFFLSYAHVRCNSYRPEAAREQVQIGAHSPPQFRVNGAISNFEEFQKAFNCPPNSTMNRGMDSCRLW
		176 nM	PHEX (enzyme) SLQAKQEYCLKPECIEAAAAILSKVNLSVDPCDNFFRFACDGWISNNPIPEDMPSYGVYPWLRHNVDLKLKELLEKSISRRRDTEAIQKAKILYSSCMNEKAIEKADAKPLLHILRHSPFRWPVLESNIGPEGVWSERKFSLLQTLATFRGQYSNSVFIRLYVSPDDKASNEHILKLDQATLSLAVREDYLDNSTEAKSYRDALYKFMVDTAVLLGANSSRAEHDMKSVLRLEIKIAEIMIPHENRTSEAMYNKMNISELSAMIPQFDWLGYIKKVIDTRLYPHLKDISPSENVVVRVPQYFKDLFRILGSERKKTIANYLVWRMVYSRIPNLSRRFQYRWLEFSRVIQGTTTLLPQWDKCVNFIESALPYVVGKMFVDVYFQEDKKEMMEELVEGVRWAFIDMLEKENEWMDAGTKRKAKEKARAVLAKVGYPEFIMNDTHVNEDLKAIKFSEADYFGNVLQTRKYLAQSDFFWLRKAVPKTEWFTNPTTVNAFYSASTNQIRFPAGELQKPFFWGTEYPRSLSYGAIGVIVGHEFTHGFDNNGRKYDKNGNLDPWWSTESEEKFKEKTKCMINQYSNYYWKKAGLNVKGKRTLGENIADNGGLREAFRAYRKWINDRRQGLEEPLLPGITFTNNQLFFLSYAHVRCNSYRPEAAREQVQIGAHSPPQFRVNGAISNFEEFQKAFNCPPNSTMNRGMDSCRLW
